Test results taken from article PMC12339742.

Experiment: turbidity assay; turbidity at 600 nm against protein concentration; 20 mM Tris-HCl, 150 mM NaCl pH 8.0, 20% (w/v) PEG2k; 96-well plate, quadruplicate; self-assembly into condensates
Conditions: other: turbidity assay
For “PduP encapsulation peptide with its native linker fused to the N-terminus of mNeonGreen”, the “inflection of turbidity against protein concentration” value was 33.1 µM ± 0.4 µM. With “Two serial repeats of the PduP EP and its native linker fused to the N-terminus of mNeonGreen” the inflection of turbidity against protein concentration was 15.5 µM. Substance “Three serial repeats of the PduP EP and its native linker fused to the N-terminus of mNeonGreen” has an inflection of turbidity against protein concentration of 19.7 µM.
